Molecular target: T1, endogenous Smad4 of 293T cells (UniProt Q13485 1-552)
T1 sequence (looked up): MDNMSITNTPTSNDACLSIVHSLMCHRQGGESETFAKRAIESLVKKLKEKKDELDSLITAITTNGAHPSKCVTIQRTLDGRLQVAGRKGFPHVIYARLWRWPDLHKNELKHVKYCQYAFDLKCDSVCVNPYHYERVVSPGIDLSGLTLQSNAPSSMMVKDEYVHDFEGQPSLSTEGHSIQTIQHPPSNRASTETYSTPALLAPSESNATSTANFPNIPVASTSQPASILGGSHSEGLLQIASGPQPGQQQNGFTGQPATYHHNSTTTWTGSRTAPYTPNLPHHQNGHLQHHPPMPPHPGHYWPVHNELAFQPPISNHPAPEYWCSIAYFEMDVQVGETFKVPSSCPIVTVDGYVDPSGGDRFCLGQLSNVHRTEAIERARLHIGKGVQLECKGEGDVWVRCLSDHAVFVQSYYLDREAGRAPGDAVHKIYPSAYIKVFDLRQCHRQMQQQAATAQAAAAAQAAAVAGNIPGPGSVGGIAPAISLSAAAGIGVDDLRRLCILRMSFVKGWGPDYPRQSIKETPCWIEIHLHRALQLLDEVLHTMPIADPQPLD
Test: co-immunoprecipitation: anti-c-Myc IP of 293T whole cell extract, immunoblot with anti-Smad4
From the text: (a) An interaction between c-Myc-tagged PDLIM2 and an endogenous Smad transcription factors; 293T cells were transfected with or without a c-Myc-tagged PDLIM2 expression plasmid (c-Myc PDLIM2) and treated to obtain whole cell extracts, which were immunoprecipitated (IP) with anti-c-Myc antibody, and immunoblotted (IB) with anti-Smad2, 3 or 4 antibody. (b) Luciferase activity in mouse embryonic fibroblasts; with or without a plasmid that encodes PDLIM2, the cells were transfected with a plasmid that encodes a TARE luciferase reporter (pTARE-Luc), after which the cells were stimulated with human TGFβ (10 ng/ml) for 6 hours and assayed.
All lysis buffers used for immunoblot analysis contained a proteinase inhibitor cocktail (Roche). Cytoplasmic and nuclear extracts were prepared as follows. Cells were lysed on ice for 10 min with hypotonic buffer (20 mM HEPES pH 8.0, 10 mM KCl, 1 mM MgCl₂, 0.1% Triton X-100, 20% glycerol). After centrifugation (5,000 rpm, 1 min), supernatants were collected and used as cytoplasmic fractions. The pellets were next lysed on ice for 20 min after brief vortexing with hypertonic buffer (20 mM HEPES pH 8.0, 1 mM EDTA, 20% glycerol, 0.1% Triton X-100, 400 mM NaCl). After centrifugation (15,000 rpm, 5 min), supernatants were collected and used as nuclear fractions. […]

binding result: no binding
B1: c-Myc-tagged PDLIM2 (murine Pdlim2 coding region in pCMV-Myc) (enzyme)
chain: MALTVDVAGPAPWGFRISGGRDFHTPIIVTKVTERGKAEAADLRPGDIIVAINGQSAENMLHAEAQSKIRQSASPLRLQLDRSQTASPGQTNGEGSLEVLATRFQGSLRTHRDSQSSQRSACFSPVSLSPRPCSPFSTPPPTSPVALSKEDMIGCSFQSLTHSPGLAAAHHLTYPGHPTSQQAGHSSPSDSAVRVLLHSPGRPSSPRFSSLDLEEDSEVFKMLQENRQGRAAPRQSSSFRLLQEALEAEERGGTPAFVPSSLSSQASLPTSRALATPPKLHTCEKCSVNISNQAVRIQEGRYRHPGCYTCADCGLNLKMRGHFWVGNELYCEKHARQRYSMPGTLNSRA
notes: Expressed in 293T cells and tested in whole cell extracts; also called c-Myc PDLIM2; PDZ and LIM domain protein-2; not shown: c-Myc tag from vector pCMV-Myc (Clontech)
